Laboratory results: patent US12269902B2, “Peptide compounds and peptide conjugates for the treatment of cancer through receptor-mediated chemotherapy” (TRANSFERT PLUS, S.E.C., priority 2015, dated 2025)
Residues, ends and D or L forms follow the SMILES beside them. *: point of attachment. X1 = CC(=O)O[C@@]12CO[C@@H]1C[C@H](O)[C@@]1(C)C(=O)[C@H](O)C3=C(C)[C@@H](OC(=O)[C@H](OC(=O)CCC(=O)*)[C@@H](NC(=O)OC(C)(C)C)c4ccccc4)C[C@@](O)([C@@H](OC(=O)c4ccccc4)[C@H]21)C3(C)C; Biotin = O=C1N[C@H]2[C@H](CS[C@H]2CCCCC(=O)*)N1

Columns and labels:
[1] = Tissue distribution of radiolabeled compounds in mice
Description: CD-1 mice were injected with the radiolabeled conjugate at 5 mg/kg via iv bolus injections (21A) or […] of radiolabeled Docetaxel (21B). At the indicated times (1 h, 6 h, 24 h) mice were sacrificed and perfused with saline for 8 min. Tissues were then collected and radioactivity was measured. Results are expressed in terms of ng/g of tissue.
At the indicated times (1, 6 and 24 hours), whole body perfusion was performed for 8 min with saline at a flow rate of 8 ml/min after […] hours iv bolus injections.
After radiolabeling free iodine was remove. Mice were injected with Docetaxel-[^125I]-Katana peptide conjugate at 5 mg/kg. Plasma was collected at the indicated times. After 1, 2 and 24 hours some mice were perfused with saline, sacrificed and tissues were collected. Radioactivity in the plasma and tissues were measured in a radioactivity counter and results were calculated and expressed in terms of […] for the plasma or ng/g of tissues.

[2] = test system: SKOV3 cancer cells; assay: SKOV3 luciferase subcutaneous xenograft tumour model (Docetaxel, KBA-105); settings: mice, treatments at 20 mg/kg/week as printed (equivalent dose of Docetaxel)
Description: Mice were implanted in the flank with SKOV3 cancer cells. Tumor growth was monitored by luminescence using the Near Infrared imaging system from Carestream.
Results are expressed in terms of luminescence intensity as a function of post-treatment days.
To further evaluate the in vivo efficacy of the Katana-drug conjugate, SKOV3 cancer cells expressing luciferase were implanted in the mouse flank. […] Tumour imaging was performed on different days by injecting the luciferase substrate luciferin and by using the Xtreme imaging system from Carestream.
Luminescence was then quantified and plotted as a function of days after implantation (FIG. 23).
SKOV3 cancer cells (2.5×10^6 cells) expressing luciferase were implanted in the right flank of mice. Tumour growth was monitored using near infrared (NiR) imaging system from Carestream by injecting the luciferase substrate luciferin. […] Luminescence associated with tumour growth of SKOV3/Luc cancer cells was quantified as a function of post-treatment days with the instrument software.

[3] = test system: MDA-MB-231 breast cancer cells; assay: cells; settings: MDA-MB-231 (Breast); Table 4; 2 or 3 days
Description: Breast cancer cells (MDA-MB231) were incubated with increasing concentrations of KBC106 or curcumin. After 72 hrs, thymidine incorporation assay was performed to assess the anti-proliferative properties of both molecules. IC50 values were extracted from the anti-proliferative curves.
(§1) The phytochemical Curcumin, unconjugated and conjugated, was also tested on cancer cell proliferation (FIG. 28). Breast cancer cells (MDA-MB231) were incubated with increasing concentrations of KBC106 or curcumin. After 72 hrs, thymidine incorporation assay was performed to assess the anti-proliferative properties of both molecules. IC50 values were extracted from the anti-proliferative curves. […] Proliferation assay was also performed using different types of cancer cells (ovarian, breast, skin and colorectal cancer cells). IC50 values were calculated from the anti-proliferation curves.
(§2) Cancer cells were cultured in 96-well white plates (Perkin Elmer). They were synchronized for 24 hours in serum-deprived medium. After incubation of cells with unconjugated drugs (docetaxel, cabazitaxel, doxorubicin) or with drug-Katana peptide conjugates for 2 or 3 days, all media was aspirated and cells were pulse-labeled for 4 hours at 37° C./[…]/5% CO2 with media containing 2.5 μCi/mL [methyl-3H] thymidine (Perkin Elmer). Cells were washed, fixed, and dried before addition of scintillation fluid (Microscint 0, Perkin Elmer). After 24 hours, cell-associated tritium was quantified by counting on a plate reader (TopCount, Perkin Elmer). Incorporated [3H] thymidine was plotted for each drug concentration.

[4] = Plasma pharmacokinetics of radiolabeled compounds in mice; type: in vivo; settings: mice iv, Docetaxel 2.2 mg/kg, KBA105 5 mg/kg
Description: FIG. 20 is a graph showing concentration of unconjugated and conjugated Docetaxel as a function of time. Mice were injected iv with radiolabeled [^3H]-Docetaxel or radiolabeled [^125I]-KBA105 at an equivalent dose of Docetaxel (Docetaxel=2.2 mg/kg; KBA105=5 mg/kg). Plasma samples were collected at different time points and radioactivity quantified. Results are expressed in terms of KBA105 or Docetaxel concentration in plasma as a function of time. Area under the curve for the time period (AUC1-24) was estimated for KBA105 and Docetaxel using GraphPad Prism software. Ratio between AUC1-24 for KBA105 and Docetaxel was calculated to be around 35.
To evaluate the impact of the drug conjugation to Katana Biopharma peptide on drug pharmacokinetics and tissue distribution, mice were injected with [^125I]-Docetaxel-Katana peptide conjugate. Plasma was collected at different times (FIG. 19A). Radioactivity associated with plasma was quantified and pharmacokinetic parameters were determined. […] In FIG. 20, plasma concentration of Docetaxel-Katana peptide conjugate was compared to that of unconjugated Docetaxel after iv bolus injection.
After radiolabeling free iodine was remove. […] Plasma was collected at the indicated times.

[5] = target: P-gp (MDR1) (Homo sapiens, UniProt P08183); assay: Drug accumulation in MDCK-MDR1 cells with or without Cyclosporin A; settings: 50 nM, 1 hr, 37° C., CsA 10 μM
Sequence of P-gp (MDR1) (P08183 whole entry): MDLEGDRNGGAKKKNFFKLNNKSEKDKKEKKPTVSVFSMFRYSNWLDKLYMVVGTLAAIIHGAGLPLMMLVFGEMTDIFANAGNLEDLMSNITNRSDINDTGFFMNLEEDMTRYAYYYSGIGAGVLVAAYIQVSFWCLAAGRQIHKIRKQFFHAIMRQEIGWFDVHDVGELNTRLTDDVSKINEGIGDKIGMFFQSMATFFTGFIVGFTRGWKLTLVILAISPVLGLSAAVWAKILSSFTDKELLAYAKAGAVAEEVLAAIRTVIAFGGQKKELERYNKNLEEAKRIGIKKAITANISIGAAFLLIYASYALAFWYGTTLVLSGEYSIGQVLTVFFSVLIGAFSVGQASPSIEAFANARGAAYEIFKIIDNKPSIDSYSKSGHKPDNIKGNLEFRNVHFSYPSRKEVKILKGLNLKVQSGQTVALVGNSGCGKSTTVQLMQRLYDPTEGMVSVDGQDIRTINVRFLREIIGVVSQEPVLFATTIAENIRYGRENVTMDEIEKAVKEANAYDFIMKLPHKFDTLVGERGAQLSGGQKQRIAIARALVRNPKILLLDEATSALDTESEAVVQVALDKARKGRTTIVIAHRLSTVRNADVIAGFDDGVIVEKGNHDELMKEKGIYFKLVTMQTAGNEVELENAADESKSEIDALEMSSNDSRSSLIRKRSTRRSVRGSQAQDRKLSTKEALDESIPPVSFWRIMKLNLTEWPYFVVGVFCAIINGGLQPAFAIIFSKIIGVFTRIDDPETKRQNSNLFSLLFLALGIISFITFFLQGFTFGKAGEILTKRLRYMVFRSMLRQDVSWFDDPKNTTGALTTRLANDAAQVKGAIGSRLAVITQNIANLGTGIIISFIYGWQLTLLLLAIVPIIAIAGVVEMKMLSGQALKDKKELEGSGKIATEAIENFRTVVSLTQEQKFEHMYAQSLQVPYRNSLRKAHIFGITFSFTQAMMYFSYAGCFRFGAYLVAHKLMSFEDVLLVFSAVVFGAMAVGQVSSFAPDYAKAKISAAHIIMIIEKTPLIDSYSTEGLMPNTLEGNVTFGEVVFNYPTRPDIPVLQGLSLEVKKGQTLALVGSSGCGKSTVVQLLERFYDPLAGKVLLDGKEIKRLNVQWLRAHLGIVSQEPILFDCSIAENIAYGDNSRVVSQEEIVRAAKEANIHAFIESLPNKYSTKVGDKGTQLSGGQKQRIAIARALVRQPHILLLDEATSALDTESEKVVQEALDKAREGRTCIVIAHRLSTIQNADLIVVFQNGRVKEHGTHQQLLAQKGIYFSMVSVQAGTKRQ
Description: 6A. […] 6B. MDCK-MDR1 cells were incubated with 50 nM of either [^14C]-Doxorubicin or [^125I]-Katana peptide-Doxorubicin conjugate (KBB106) for 1 hr at 37° C. in the presence or absence of CsA (10 μM). After the incubation, cells were washed and radioactivity accumulated in cells was quantified. The results were expressed in terms of uptake fmol/mg of protein.
In order to determine whether the anticancer drug-Katana-peptide conjugates could also be P-gp substrates, MDCK-transfected cells with human MDR1 were used (MDCK-MDR1).
Cells were washed three times with PBS and preincubated for 30 min at 37° C. in culture medium without serum with or without the P-gp inhibitor Cyclosporin A (10 μM). Radiolabelled molecules (50 nM) were then added for 60 min. The cells were rapidly washed three times with ice-cold PBS and then lysed in 500 µL of 0.1 M NaOH. The amount of radiolabelled molecules retained in the cells was counted by β-scintillation counting (Packard model 1900 TR). An aliquot of cell lysate was used in parallel to determine cellular protein concentration.

[6] = test system: SK-MEL-28 skin cancer cells; assay: [3H]-Thymidine incorporation cell proliferation assay, SK-MEL-28; type: cell-based; settings: SK-MEL-28 (Skin); Table 4; 2 or 3 days
Description: (§3) The effect of the Docetaxel-Katana peptide conjugate on various cell line proliferations was evaluated and compared to unconjugated Docetaxel (Table 4). IC50 values obtained for the Docetaxel-Katana peptide conjugate were very similar to those of Docetaxel in the cancer cells tested.
as §1, with “anti-proliferation curves. In all cases, the Curcumin conjugate (KBC106) had stronger anti-proliferative activity (9-100 fold) than unconjugated Curcumin, as shown in Table 6 below.” for “anti-proliferation curves.”
as §2

[7] = test system: A-375 skin cancer cells; assay: [3H]-Thymidine incorporation cell proliferation assay, A-375; type: cell-based; settings: A-375 (Skin); Table 4; 2 or 3 days
Description: as §3
as §1, with “anti-proliferation curves. In all cases, the Curcumin conjugate (KBC106) had stronger anti-proliferative activity (9-100 fold) than unconjugated Curcumin, as shown in Table 6 below.” for “anti-proliferation curves.”
as §2

[8] = test system: ES-2 ovarian cancer cells; assay: [3H]-Thymidine incorporation cell proliferation assay, ES-2; type: cell-based; settings: ES-2 (Ovary); Table 4; 2 or 3 days
Description: as §3
as §1, with “anti-proliferation curves. In all cases, the Curcumin conjugate (KBC106) had stronger anti-proliferative activity (9-100 fold) than unconjugated Curcumin, as shown in Table 6 below.” for “anti-proliferation curves.”
as §2

[9] = target: T1, sortilin (Homo sapiens, UniProt Q99523); assay: biochemical; type: binding; settings: read-out: ka
T1 construct: Increasing concentrations of a soluble form of sortilin was then injected over the sensor chip
T1 sequence (Q99523 78-755 limits assumed): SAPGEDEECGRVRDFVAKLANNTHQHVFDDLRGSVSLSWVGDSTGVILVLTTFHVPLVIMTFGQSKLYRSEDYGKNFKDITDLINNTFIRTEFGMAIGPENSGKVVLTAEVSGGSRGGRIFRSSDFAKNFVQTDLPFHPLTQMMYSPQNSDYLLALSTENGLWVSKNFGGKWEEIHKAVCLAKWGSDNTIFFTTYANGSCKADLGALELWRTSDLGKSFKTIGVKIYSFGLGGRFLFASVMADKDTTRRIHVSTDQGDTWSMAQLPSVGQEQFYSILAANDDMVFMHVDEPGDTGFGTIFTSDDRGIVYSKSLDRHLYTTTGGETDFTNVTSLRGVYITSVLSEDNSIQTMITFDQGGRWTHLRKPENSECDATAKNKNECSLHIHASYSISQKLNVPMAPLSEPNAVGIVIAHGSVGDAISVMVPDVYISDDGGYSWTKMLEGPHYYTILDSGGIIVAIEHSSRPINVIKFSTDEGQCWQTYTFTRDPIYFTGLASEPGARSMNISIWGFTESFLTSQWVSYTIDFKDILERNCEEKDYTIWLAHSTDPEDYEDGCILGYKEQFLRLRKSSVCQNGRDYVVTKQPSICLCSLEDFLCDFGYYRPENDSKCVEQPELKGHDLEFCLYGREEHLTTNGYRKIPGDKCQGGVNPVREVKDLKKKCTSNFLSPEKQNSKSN
Description: Biotinylated Katana peptide was immobilized on a streptavidin sensor chip. A. Soluble sortilin was then injected over the immobilized peptide. The surface plasmon resonance signal was then monitored over time.
Surface plasmon resonance (SPR) was first used to investigate whether these peptides could be recognized by sortilin. For this approach, biotin was added on the C-terminal end of the Katana-Biopharma peptide during peptide synthesis. The biotinylated-peptide (KBP-103) was then immobilized on a streptavidin sensor chip using recommended procedures from the manufacturer. Increasing concentrations of a soluble form of sortilin was then injected over the sensor chip. Interactions between immobilized KBP-103 and the receptor sortilin was then monitored in real time. A representative interaction curve is shown in FIG. 1, and from the sensorgram curves the affinity constant as well as Ka and Kd were determined and are indicated in Table 2. Affinity constants (KD, Ka and […]) were extracted from various injections using the BIA evaluation software.

CSCC[C@H](NC(=O)[C@H](CC(N)=O)NC(=O)[C@H](CCCNC(=N)N)NC(=O)[C@@H](NC(=O)CNC(=O)[C@H](C)NC(=O)[C@H](CCCCNC(=O)CCC(=O)O[C@@H](C(=O)O[C@H]1C[C@@]2(O)[C@@H](OC(=O)c3ccccc3)[C@@H]3[C@]4(OC(C)=O)CO[C@@H]4C[C@H](O)[C@@]3(C)C(=O)[C@H](O)C(=C1C)C2(C)C)[C@@H](NC(=O)OC(C)(C)C)c1ccccc1)NC(=O)[C@H](C)NC(=O)[C@H](CCCNC(=N)N)NC(=O)[C@@H](NC(=O)CNC(C)=O)C(C)C)C(C)C)C(=O)N[C@@H](Cc1ccccc1)C(=O)N[C@@H](CCCCNC(=O)CCC(=O)O[C@@H](C(=O)O[C@H]1C[C@@]2(O)[C@@H](OC(=O)c3ccccc3)[C@@H]3[C@]4(OC(C)=O)CO[C@@H]4C[C@H](O)[C@@]3(C)C(=O)[C@H](O)C(=C1C)C2(C)C)[C@@H](NC(=O)OC(C)(C)C)c1ccccc1)C(=O)N[C@@H](CO)C(=O)N[C@@H](CCC(=O)O)C(=O)N[C@@H](CO)C(=O)N[C@@H](Cc1ccc(O)cc1)C(=O)O [KBA-105] (Ac-GVRAK(X1)AGVRNMFK(X1)SESY-OH; C-terminus assumed)
Ratio (Estimated Docetaxel/Docetaxel) (AUC1-24) ([1]; Brain): 21.3
Ratio KBA105/Docetaxel (AUC1-24) ([1]; Brain): 48.3
Ratio (Estimated Docetaxel/Docetaxel) (AUC1-24) ([1]; Heart): 4.5
Ratio KBA105/Docetaxel (AUC1-24) ([1]; Heart): 10.3
Ratio (Estimated Docetaxel/Docetaxel) (AUC1-24) ([1]; Kidney): 5.3
Ratio KBA105/Docetaxel (AUC1-24) ([1]; Kidney): 12.0
Ratio (Estimated Docetaxel/Docetaxel) (AUC1-24) ([1]; Liver): 26.4
Ratio KBA105/Docetaxel (AUC1-24) ([1]; Liver): 60
Ratio (Estimated Docetaxel/Docetaxel) (AUC1-24) ([1]; Lung): 221
Ratio KBA105/Docetaxel (AUC1-24) ([1]; Lung): 500
Ratio (Estimated Docetaxel/Docetaxel) (AUC1-24) ([1]; Mammary): 1.5
Ratio KBA105/Docetaxel (AUC1-24) ([1]; Mammary): 3.3
Ratio (Estimated Docetaxel/Docetaxel) (AUC1-24) ([1]; Ovary): 0.7
Ratio KBA105/Docetaxel (AUC1-24) ([1]; Ovary): 1.6
Ratio (Estimated Docetaxel/Docetaxel) (AUC1-24) ([1]; Spleen): 25.0
Ratio KBA105/Docetaxel (AUC1-24) ([1]; Spleen): 24.9
effect on body weight [2]: unaffected
IC50 [3]: 1.03 nM
Ratio between AUC1-24 for KBA105 and Docetaxel [4]: around 35
effect of CsA on accumulation [5]: lack of CsA effect
IC50 [6]: 0.09 nM
IC50 [7]: 0.43 nM
IC50 [8]: 0.7 nM

CC[C@H](C)[C@H](N)C(=O)N[C@@H](CCCCN)C(=O)N[C@@H](CC(C)C)C(=O)N[C@@H](CO)C(=O)NCC(=O)NCC(=O)N[C@H](C(=O)N[C@@H](CCC(N)=O)C(=O)N[C@@H](C)C(=O)N[C@@H](CCCCN)C(=O)N[C@@H](C)C(=O)NCC(=O)N[C@H](C(=O)N[C@H](C(=O)N[C@@H](CC(N)=O)C(=O)N[C@@H](CCSC)C(=O)N[C@@H](Cc1ccccc1)C(=O)N[C@@H](CCCCN)C(=O)N[C@@H](CO)C(=O)N[C@@H](CCC(=O)O)C(=O)N[C@@H](CO)C(=O)N[C@@H](Cc1ccc(O)cc1)C(=O)N[C@@H](CCCCNC(=O)CCCC[C@@H]1SC[C@@H]2NC(=O)N[C@@H]21)C(=O)O)[C@@H](C)CC)C(C)C)C(C)C [KBP-103] (H-IKLSGGVQAKAGVINMFKSESYK(Biotin)-OH)
kon [9]: 683000 M⁻¹ s⁻¹
